# From patent US20240408183A1, “KYNURENINE AMINOTRANSFERASE AND PRODUCTS THEREOF FOR THE TREATMENT OF INFLAMMATORY BOWEL DISEASES” (Institut National De Recherche Pour L'Agriculture, …, priority 2021, published 2024)
# Key:
# [1] = system: mice submitted to DSS-induced colitis; assay: DSS-induced colitis model in mice; type: in vivo, mouse (C57BL/6JRj); conditions: purified AADAT intraperitoneally
# Experimental: C57BL/6JRj from Janvier lab, 7 weeks old, were housed in our specific pathogen free animal facility at IERP (INRA, Jouy en Josas, France). Five to ten female mice per group were used in all experiment, were maintained in a temperature controlled (23° C.) facility with a strict 12 h light/dark cycles and were given free access to food and water. After one acclimation week, we changed water with DSS 2% (MP Biomedical) during 7 days (day 0 to day 7), and a
# recovery period was practiced until day 12 (during 5 days). Body weight loss and DAI (disease activity index) were performed daily. After 12 days the samples were harvested.
# Colon distal part (cut in three parts) was harvested at day 12 after DSS model and put directly in PFA (Rothi®—Histofix 4%) during 48 h and transferred in ethanol 70% until the standard pre-fixation automat and paraffin embedded. HES coloration was practiced on 5Im cut.
# Data were analyzed using Prism version 7 (Graphpad Software, San Diego, USA). The non-parametric Mann Withney test or the parametric one-way ANOVA tests with multiple Bonferroni's comparison tests were performed. Values are expressed as mean±SEM. Statistical significance was defined at a p-value ****<0.0001, ***<0.001, **<0.01, *<0.05.
# [2] = system: kynurenine (KYNU) and 3-hydroxykynurenin, substrates of AADAT; assay: AADAT activity test (disappearance of kynurenine/3-hydroxykynurenin; production of KYNA and XANA in vitro); type: biochemical; conditions: 15 min, KYNU 1000 μM, FIG. 4F
# Experimental: KAT activity may be assessed by any method known by the skilled person. For instance, KAT activity could be assessed as described in the experimental section, i.e. an assay based on the disappearance of kynurenine and/or 3-hydroxykynurenin. Briefly, a reaction mixture (50 μL final volume) containing 10 mM L-kynurenine or 3-hydroxykynurenin, 2 mM α-oxoglutarate, 40 μM PLP (pyridoxal 5′-phosphate) and 0 or 1 μL of the protein to be tested prepared in buffer 100 mM potassium phosphate (pH 7.4), is incubated at 37° C. for 15 min. The reaction is stopped by the addition of an equal volume of 30% acetic acid. The supernatant of the reaction mixture, obtained by centrifugation at 3000 g for 10 min at 4° C., is mixed equally with Ehrlich's solution and incubated 15 min at room temperature to have a colorimetric reaction. In parallel, a standard range of kynurenine or 3-hydroxykynurenin from 0 μM to 1000 μM is made under the same conditions. The amount of kynurenine or 3-hydroxykynurenin present in the sample is measured with a spectrophotometer at an OD of 492 nm and calculated using the standard range. […]
# The activity test is based on the disappearance of kynurenine and 3-hydroxykynurenin which are substrates of AADAT. […] The amount of kynurenine or 3-hydroxykynurenin present in the sample was measured with a spectrophotometer at an OD of 492 nm and calculated using the standard range (FIG. 4E).
# [3] = 10, 1 and 0.1 μL per day and per mouse
molecule,measurement,setting,value
"AADAT: recombinant murine Alpha-Aminoadipate AminoTransferase (SEQ ID NO:13) expressed in E. coli and purified by affinity chromatography (protein, listed as Mus musculus) MNYSRFLTATSLARKPSPIRTTADILSKAPKTLISLAPGSPNPSMFPFKSAAFTVENGSTIRFEDDLIKRALQYSPSYGIPELLSWLKQFQVKLHNPPTVNYPPNQGQMDLCITSGCQDGLCKAFEMLINPGDTILVNEPLFPGTLYAMKPLGCNIINVPSDEHGIIPEGLKKILSQWKPEDSKDPTKKTPKFLYTVPNGNNPTGNSLTGDRKKEIYELARKYDFLIIEDDPYYFLQFSKPWEPTFLSMDVDGRVIRADTFSKTVSSGLRVGFMTGPKTLIQNIVLHTQVSSVHACTLSQLMILQLLHQWGEEGFLAHIDRTIDFYKNQRDSILAAADKWLRGLAEWHVPKAGMFLWIKVKGISDTKQLIEEKAIEREVLLVPGNGFFIDGSAPTSFFRASFSLATPAQMDTAFQRLAQLIKESL",protective effect at the two lower doses,[1]; 1 and 0.1 μL per day and per mouse,protective effect is also seen
same,clinical score,[1]; [3],"protection, with a dose effect"
same,histological score,[1]; [3],"protection, with a dose effect"
same,weight loss,[1]; [3],"protection, with a dose effect"
same,colon length,"[1]; 10, 1 and 0.1 μL per day and per mouse, day 12","protection, with a dose effect"
same,transformation of KYNU into KYNA and XANA,[2],A dose effect can be observed
